Legend:
[1] = molecular target: C.CH505TF SOSIP.664.v4.1 (HIV-1 (C.CH505 transmitted/founder))
CH103 (human) [2] = experiment: SPR
[3] = molecular target: CH103 lineage intermediate I3 (human); experiment: SPR
[4] = molecular target: CH103 lineage intermediate I8 (human); experiment: SPR
CH103-S14P (human) [5] = experiment: SPR
CH103-S14P/G30S (human) [6] = experiment: SPR
CH106 (human) [7] = experiment: SPR
CH103 (human) [8] = experiment: SPR; BIAcore T200; […]) 5 min at 50 µL/min, 10 min dissociation; […]; global 1:1 Langmuir fit; […]
CH106 (human) [9] = experiment: as above
[10] = molecular target: I3 (CH103 lineage intermediate) (human); experiment: as above
[11] = molecular target: I8 (CH103 lineage intermediate) (human); experiment: as above
[12] = molecular target: C.CH505TF gp120 (HIV-1 clade C, CH505 transmitted/founder) (UniProt M4M0W3); experiment: SPR
CH103 (human) [13] = experiment: BLI; […]; mAb (20 ug/mL in PBS) […] (AHC) […], association 400 s, […]; 1:1 model; […]
CH103 UCA (human) [14] = experiment: as above
CH103 UCA-P14S (human) = experiment: as above
CH103 UCA-S30G (human) = experiment: as above
[15] = molecular target: CH103 UCA-S30G/S31G (human); experiment: as above
CH103-S14P (human) [16] = experiment: as above
CH103-S14P/G30S (human) [17] = experiment: as above
CH106 (human) [18] = experiment: as above
I4-S14P (human) = experiment: as above
I4-S14P/G30S (human) [19] = experiment: as above
CH103 (human) [20] = experiment: BLI; […] (AHC) […]; 1:1 model; […]
CH103 UCA (human) [21] = experiment: BLI; […] (AHC) […]; 1:1 model; […]
CH103-S14P/G30S (human) [22] = experiment: BLI; […] (AHC) […]; 1:1 model; […]
CH106 (human) [23] = experiment: BLI; […] (AHC) […]; 1:1 model; […]
I4-S14P/G30S (human) [24] = experiment: BLI; […] (AHC) […]; 1:1 model; […]
UCA-P14S (human) = experiment: BLI; […] (AHC) […]; 1:1 model; […]
UCA-S30G (human) = experiment: BLI; […] (AHC) […]; 1:1 model; […]
UCA-S30G/S31G (human) = experiment: BLI; […] (AHC) […]; 1:1 model; […]

Chain of CH103-S14P (human) (heavy, as listed by the source, chain 1 of 2): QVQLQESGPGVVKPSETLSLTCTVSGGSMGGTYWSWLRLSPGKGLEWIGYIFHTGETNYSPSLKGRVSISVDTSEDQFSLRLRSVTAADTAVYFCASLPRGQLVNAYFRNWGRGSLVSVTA
Chain of CH103-S14P (human) (light, as listed by the source, chain 2 of 2): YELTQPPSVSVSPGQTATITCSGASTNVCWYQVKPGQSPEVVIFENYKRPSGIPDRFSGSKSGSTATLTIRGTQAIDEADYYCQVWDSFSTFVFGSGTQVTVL
Chain of CH103 (human) (heavy, as listed by the source, chain 1 of 2): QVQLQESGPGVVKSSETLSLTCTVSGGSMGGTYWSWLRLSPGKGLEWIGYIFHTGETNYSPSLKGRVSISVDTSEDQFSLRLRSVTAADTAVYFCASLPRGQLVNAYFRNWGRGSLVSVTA
Chain of CH106 (human) (heavy, as listed by the source, chain 1 of 2): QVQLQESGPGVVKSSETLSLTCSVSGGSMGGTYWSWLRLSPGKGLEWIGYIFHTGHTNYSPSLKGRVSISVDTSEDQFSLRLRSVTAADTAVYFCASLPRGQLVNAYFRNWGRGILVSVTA
Chain of CH106 (human) (light, as listed by the source, chain 2 of 2): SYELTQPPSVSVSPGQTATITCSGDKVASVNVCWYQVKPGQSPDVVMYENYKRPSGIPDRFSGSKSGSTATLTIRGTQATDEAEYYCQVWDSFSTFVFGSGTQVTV
Chain of CH103-S14P/G30S (human) (heavy, as listed by the source, chain 1 of 2): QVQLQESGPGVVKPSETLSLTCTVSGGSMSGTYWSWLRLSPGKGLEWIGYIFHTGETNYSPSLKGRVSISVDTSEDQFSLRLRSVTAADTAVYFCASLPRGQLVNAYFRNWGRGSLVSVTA

CH103-S14P (antibody)
IC80 of neutralisation of the autologous CH505TF Env-pseudovirus, TZM-bl cells (Env on the virus, not the SOSIP trimer) [1]: 12.8 µg/mL

B.63521 D11 gp120 (domain or fragment)
koff (CH103 (human) [2]): 2e-05 s⁻¹ | kon (CH103 (human) [2]): 15000 M⁻¹ s⁻¹ | koff [3]: 0.0225 s⁻¹ | kon [3]: 5300 M⁻¹ s⁻¹ | Kd [4]: 680 µM | koff [4]: 0.113 s⁻¹ | Kd (CH103-S14P (human) [5]): 0.0021 µM | koff (CH103-S14P (human) [5]): 2e-05 s⁻¹ | kon (CH103-S14P (human) [5]): 9100 M⁻¹ s⁻¹ | Kd (CH103-S14P/G30S (human) [6]): 0.004 µM | koff (CH103-S14P/G30S (human) [6]): 2.9e-05 s⁻¹ | kon (CH103-S14P/G30S (human) [6]): 8210 M⁻¹ s⁻¹ | koff (CH106 (human) [7]): 0.000229 s⁻¹ | kon (CH106 (human) [7]): 16000 M⁻¹ s⁻¹ | Kd (CH103 (human) [8]): 0.0011 µM | Kd (CH106 (human) [9]): 0.0142 µM | Kd [10]: 4.2 µM | fold faster ka than I8 [10]: > 50 fold | kon [11]: 170 M⁻¹ s⁻¹

I4-S14P/G30S (antibody)
IC50 of neutralisation of the autologous CH505TF Env-pseudovirus, TZM-bl cells (Env on the virus, not the SOSIP trimer) [1]: 43.2 µg/mL | IC80 of neutralisation of the autologous CH505TF Env-pseudovirus, TZM-bl cells (Env on the virus, not the SOSIP trimer) [1]: > 50 µg/mL | Kd [12]: 0.1 µM | koff [12]: 0.00101 s⁻¹ | kon [12]: 10000 M⁻¹ s⁻¹

CH103 (antibody)
IC80 of neutralisation of the autologous CH505TF Env-pseudovirus, TZM-bl cells (Env on the virus, not the SOSIP trimer) [1]: 6.4 µg/mL

CH103-S14P/G30S (antibody)
IC80 of neutralisation of the autologous CH505TF Env-pseudovirus, TZM-bl cells (Env on the virus, not the SOSIP trimer) [1]: 15.5 µg/mL

C.CH505TF.SOSIP.664.v4.1 (complex)
koff (CH103 (human) [13]): 1.5e-05 s⁻¹ | kon (CH103 (human) [13]): 930 M⁻¹ s⁻¹ | koff (CH103 UCA (human) [14]): 0.00168 s⁻¹ | kon (CH103 UCA (human) [14]): 1100 M⁻¹ s⁻¹ | koff (CH103 UCA-P14S (human)): 0.0015 s⁻¹ | kon (CH103 UCA-P14S (human)): 900 M⁻¹ s⁻¹ | koff (CH103 UCA-S30G (human)): 0.0015 s⁻¹ | kon (CH103 UCA-S30G (human)): 860 M⁻¹ s⁻¹ | koff [15]: 0.0012 s⁻¹ | kon [15]: 1400 M⁻¹ s⁻¹ | Kd (CH103-S14P (human) [16]): 0.02 µM | koff (CH103-S14P (human) [16]): 1.8e-05 s⁻¹ | kon (CH103-S14P (human) [16]): 890 M⁻¹ s⁻¹ | koff (CH103-S14P/G30S (human) [17]): 6.6e-05 s⁻¹ | kon (CH103-S14P/G30S (human) [17]): 450 M⁻¹ s⁻¹ | koff (CH106 (human) [18]): 3.6e-06 s⁻¹ | kon (CH106 (human) [18]): 670 M⁻¹ s⁻¹ | Kd (I4-S14P (human)): 0.109 µM | koff (I4-S14P (human)): 0.00027 s⁻¹ | kon (I4-S14P (human)): 2460 M⁻¹ s⁻¹ | koff (I4-S14P/G30S (human) [19]): 0.00034 s⁻¹ | kon (I4-S14P/G30S (human) [19]): 2120 M⁻¹ s⁻¹

C.CH505TF SOSIP.664.v4.1 (complex)
Kd (CH103 (human) [20]): 0.016 µM | Kd (CH103 UCA (human) [21]): 1.5 µM | Kd (CH103-S14P/G30S (human) [22]): 0.15 µM | Kd (CH106 (human) [23]): 0.005 µM | Kd (I4-S14P/G30S (human) [24]): 0.16 µM | Kd (UCA-P14S (human)): 1.7 µM | Kd (UCA-S30G (human)): 1.8 µM | Kd (UCA-S30G/S31G (human)): 0.8 µM

I4-S14P (antibody)
IC50 of neutralisation of the autologous CH505TF Env-pseudovirus, TZM-bl cells (Env on the virus, not the SOSIP trimer) [1]: 14.8 µg/mL | IC80 of neutralisation of the autologous CH505TF Env-pseudovirus, TZM-bl cells (Env on the virus, not the SOSIP trimer) [1]: > 50 µg/mL | Kd [12]: 0.04 µM | koff [12]: 0.00053 s⁻¹ | kon [12]: 13100 M⁻¹ s⁻¹
